Laboratory results as given in paper doi:10.1101/2023.03.13.532361.

Target: SLA dehydrogenase RlGabD from Rhizobium leguminosarum SRDI565 (Rhizobium leguminosarum SRDI565)
Experiment: SEC-MALS

- stoichiometry N: 4
Substance: SLA dehydrogenase RlGabD from Rhizobium leguminosarum SRDI565 (enzyme)
